The subject of data set [1] is normal human keratinocytes. Kind of data set: Cell viability test (XTT). Particulars: 100 to 1 μg/ml, medium renewed every two days (repeated twice).
Experimental: NHKs were seeded in 96-well plates at 10^4 cells per well. After 24 hours, the culture media were removed and replaced with KBM-2 medium containing the concentrations of peptide [sequence] (SEQ ID NO: 1) (upper curve) or LG4/5 protein (lower curve) shown. After 48 h of contact at 37° C. the media were removed and this step was repeated twice. After 48 h of contact at 37° C. the media were replaced by XTT reagent. The plates were then placed in an incubator at 37° C. and the absorption was read after 6 hours. Controls with neither peptide nor protein were made on the same plate.
The effect of the peptide on the cell viability of the normal human keratinocytes was analysed using a colorimetric assay (XTT Cell Proliferation Kit, Roche Diagnostics, Meylan, France). A control with the LG4/5 protein was carried out in parallel. The chemical reaction of the test is based on the production of NADPH in living cells reducing yellow tetrazolium XTT salts to orange formazan salts. Absorption at 490 nm is measured using an ELISA plate reader. […] In this case, cell viability was calculated from the formula: % viability=(Abs. cells with peptide/Abs. control cells)×100.
In the next data set the test system is normal human fibroblasts. Kind of data set: Cell adhesion test (crystal violet colorimetric), normal human fibroblasts. The format is cell-based. As to conditions: 5 μg peptide or 1 μg LG4/5 protein immobilised, FIG. 14B. The protocol: (A) Showing the binding of syndecan-1 to the peptide KKLRIKSKEK (SEQ ID NO: 1). A lysate of normal human fibroblasts and a lysate of normal human keratinocytes were prepared as described in the Materials and Methods section and 2 mg of each lysate were incubated with neutravidin beads not coated or coated with the biotinylated peptide KKLRIKSKEK (SEQ ID NO: 1). A positive control was performed with the keratinocyte lysate to compare the size and quantity of syndecan-1 in the 2 cell types. After washing, the material bound to the beads was digested with a mixture of heparitinase I and chondroitinase ABC to release the protein part of the syndecan-1 from the glycosaminoglycans. The samples were then analysed by SDS PAGE electrophoresis in an 8% acrylamide gel under non-reducing conditions and by immunoblotting with polyclonal anti-syndecan antibody H174. The position of molecular weight markers is shown on the left. (B, C) Cell adhesion of normal human fibroblasts to the peptide KKLRIKSKEK (SEQ ID NO: 1) and to the LG4/5 protein. In one case (B), 5 μg of peptide KKLRIKSKEK (SEQ ID NO: 1) and 1 μg of protein LG4/5 were immobilised on a 96-well plate and in the other (C), the peptide KKLRIKSKEK (SEQ ID NO: 1) was immobilised at the concentrations indicated in the abscissa. […] After washing, the adherent cells were fixed and cell adhesion was measured as described in the methodology section. […]

Data set [2] has as its system normal human keratinocytes. Put plainly: NHK wound closure in a confluent keratinocyte layer (time-lapse videomicroscopy). The data set is classed as cell-based. Particulars: LG4/5 protein 10 μg/ml, peptide 20 μg/ml. The protocol:
NHKs were seeded in 24-well plates and grown until confluence. The medium was removed and a wound was made in the cell layer using a pipette tip. After rinsing with PBS, the areas were incubated with KBM-2 culture medium at 37° C. in the absence or presence of LG4/5 protein (10 μg/ml) or the peptide KKLRIKSKEK (SEQ ID NO: 1) (20 μg/ml). The behaviour of cells around the wound was then immediately followed by time-lapse videomicroscopy with an image recorded every hour for 48 hours in a moist chamber containing 5% CO2. (A) Images recorded at the beginning of the experiment, at 24 h and 48 h show the total area of the wound covered by cells during the experiment and under each condition (the black lines represent the edges of the wound at the start of recording). Bar, […]. (B) The wounded areas (without cells) were measured at the start, at 24 h (grey bars) and 48 h (black bars) using the Adobe Photoshop CS3 Extended program (version 10.0) in the different conditions. The rate of closure of each wound was expressed as a percentage of the initial wound. […]
Videomicroscopy experiments were performed with a Zeiss Axiovert 100M microscope fitted with a CCD camera (1 image every 10 minutes or every hour). In the experiments of FIG. 11, we analysed the movements of 100 cells using Metaview software (Roper Scientific, Princeton Instruments, Evry, France).

Another data set deals with HT1080 cells. Put plainly: Inhibition of cell adhesion by competition (HT1080 cells on LG4/5 and LN332 substrates). The data set is classed as cell-based, Human. As to conditions: competitor in solution: peptide 20 μg/ml, LG4/5 protein 10 μg/ml, anti-LG4/5 antibody 10 μg/ml applied to substrate. The protocol: The LG4/5 (white bars) and LN332 (grey bars) proteins (1 μg/well) were adsorbed in 96-well plates. (A) Effect of the polyclonal anti-LG4/5 antibody on cell adhesion to the LG4/5 and LN332 protein. After saturating the wells, a solution of anti-LG4/5 antibody (10 μg/ml) was applied for one hour before performing the adhesion test with HT1080 cells (6·10^4 cells/well). (B, C) Effect of the LG4/5 protein and the peptide KKLRIKSKEK (SEQ ID NO: 1) in solution on syndecan-1 dependent adhesion to the LG4/5 fragment. The HT1080 cells were detached from the dishes and put into the wells (6·10^4 cells/well) as they were or in the presence of the LG4/5 protein (10 μg/ml) or the peptide KKLRIKSKEK (SEQ ID NO: 1) (20 μg/ml) as indicated on the graph. (A, B, C) The plates were incubated at 37° C. for 1 hour. After washing, the adherent cells were fixed and cell adhesion was measured as described in the methodology section. Cell adhesion in the presence of antibodies or competitor proteins was shown as a percentage of the cell adhesion obtained on the same substrate without competitor.
96-well plates were coated with the amounts indicated of peptide KKLRIKSKEK (SEQ ID NO: 1) or laminin 332 by adsorption at +4° C. for 16 to 18 hours. As before, the wells were saturated with a solution of 1% PBS-BSA for one hour. […]

These results are taken from patent US9260507B2, “Peptide promoting cell adhesion and migration” (Symatese, priority 2009, dated 2016).

B1: LG4/5 protein: purified recombinant LG4/5 domain of the alpha3 chain of pre-LN332 (laminin 332) (protein)
chain: DTPVASPRSVKVWQDACSPLPKTQANHGALQFGDIPTSHLLFKLPQELLKPRSQFAVDMQTTSSRGLVFHTGTKNSFMALYLSKGRLVFALGTDGKKLRIKSKEKCNDGKWHTVVFGHDGEKGRLVVDGLRAREGSLPGNSTISIRAPVYLGSPPSGKPKSLPTNSFVGCLKNFQLDSKPLYTPSSSFGVSSCLGGPLEKGIYFSEEGGHVVLAHSVLLGPEFKLVFSIRPRSLTGILIHIGSQPGKHLCVYLEAGKVTASMDSGAGGTSTSVTPKQSLCDGQWHSVAVTIKQHILHLELDTDSSYTAGQIPFPPASTQEPLHLGGAPANLTTLRIPVWKSFFGCLRNIHVNHIPVPVTEALEVQGPVSLNGCPDQ
For the molecule B1, the “Cytotoxic effect on epidermal keratinocytes (percentage of viable cells vs controls)” value in data set [1] is “neither peptide […] (SEQ ID NO: 1) nor protein LG4/5 has any long-term cytotoxic effect”. Further, the “Adhesion of human dermal fibroblasts to the immobilised substrate” value in the data set on normal human fibroblasts was “adhere”. For the same molecule, the “Area of the wound covered by cells (wound closure)” value in data set [2] (24 h) is on record as 65%; in data set [2] (48 h), 91%. The “Effect on HT1080 cell adhesion to the immobilised LG4/5 fragment” value with HT1080 cells (LG4/5 substrate 1 μg/well) was “blocked adhesion to the immobilised LG4/5 fragment”. Besides, the “Effect on HT1080 cell adhesion to LN332” value in the data set with HT1080 cells (LN332 substrate 1 μg/well) is “without affecting adhesion to LN332”.
